Biological target: T1, cynomolgus monkey IL-6 (cynomolgus monkey, UniProt P79341 28-212, limits assumed)
T1 sequence (looked up): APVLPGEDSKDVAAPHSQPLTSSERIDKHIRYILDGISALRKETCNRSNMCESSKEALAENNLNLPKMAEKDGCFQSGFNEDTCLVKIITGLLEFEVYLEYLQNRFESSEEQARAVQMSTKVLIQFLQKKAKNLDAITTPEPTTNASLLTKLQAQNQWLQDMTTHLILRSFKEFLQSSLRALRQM
Assay: tissue cross-reactivity study, cynomolgus monkey tissues

B1: clazakizumab (antibody, human IgG1, kappa, N297A, V domains shown)
VH: EVQLVESGGGLVQPGGSLRLSCAASGFSLSNYYVTWVRQAPGKGLEWVGIIYGSDETAYATSAIGRFTISRDNSKNTLYLQMNSLRAEDTAVYYCARDDSSDWDAKFNLWGQGTLVTVSS
VL: AIQMTQSPSSLSASVGDRVTITCQASQSINNELSWYQQKPGKAPKLLIYRASTLASGVPSRFSGSGSGTDFTLTISSLQPDDFATYYCQQGYSLRNIDNAFGGGTKVEIKR
notes: Humanized IgG1 monoclonal antibody; also called anti-IL-6 mAb clazakizumab
binding result: binds
